Broadly, the stoichiometry N is the number of molecules, sites or subunits per partner or assembly.

The data set “SEC” concerns the molecule itself. The experiment in a line: SEC. For orientation: In gel filtration, larger molecules generally elute earlier.
The data set “SEC + SEC-MALS” concerns the molecule itself. In words: SEC + SEC-MALS.

B1: PaCDTΔC (enzyme, Pseudomonas aeruginosa, UniProt Q01269 26-259, looked up)
chain: QESRLDRILESGVLRVATTGDYKPFSYRTEEGGYAGFDVDMAQRLAESLGAKLVVVPTSWPNLMRDFADDRFDIAMSGISINLERQRQAYFSIPYLRDGKTPITLCSEEARFQTLEQIDQPGVTAIVNPGGTNEKFARANLKKARILVHPDNVTIFQQIVDGKADLMMTDAIEARLQSRLHPELCAVHPQQPFDFAEKAYLLPRDEAFKRYVDQWLHIAEQSGLLRQRMEHWLE
For B1, in “SEC”, the “stoichiometry N” value worked out at 3.

B2: Cyclohexadienyl dehydratase from Pseudomonas aeruginosa (PaCDT) (enzyme, UniProt Q01269 26-268, looked up)
chain: QESRLDRILESGVLRVATTGDYKPFSYRTEEGGYAGFDVDMAQRLAESLGAKLVVVPTSWPNLMRDFADDRFDIAMSGISINLERQRQAYFSIPYLRDGKTPITLCSEEARFQTLEQIDQPGVTAIVNPGGTNEKFARANLKKARILVHPDNVTIFQQIVDGKADLMMTDAIEARLQSRLHPELCAVHPQQPFDFAEKAYLLPRDEAFKRYVDQWLHIAEQSGLLRQRMEHWLEYRWPTAHGK
Regarding B2, the “stoichiometry N” value in the data set “SEC + SEC-MALS” turned out to be 3.

B3: Ws0279 (natural protein, UniProt Q7MAG0 24-258, looked up)
chain: QKSTLNEIIKRGELRVGLEPGYLPFEMKDKKGNVIGFDVDLAREMAKAMGVKLKLVPTSWDGLIPGLVTEKFDIIISGMTISQERNLRVNFVEPYIVVGQSLLVKKGLEKGVKSYKDLDKPELTLVTKFGVSAEYAAKRLFKNAKLKTYDTEAEAVQEVLNGKADMFIFDLPFNVAFMAQKGQGYLVHLDTSLTYEPLGWAIKKGDPDFLNWLNHFLAQIKHDGSYDELYERWFV
Turning to B3, the “stoichiometry N” value in “SEC” was found to be 3.

Values taken from paper doi:10.1101/2022.09.13.507756 (bioRxiv, 2022).
